In article PMC10215022:

What was measured:
[1] = molecular target: SARS-CoV-2 Omicron (B.1.1.529) spike protein, plate-bound (MSD V-PLEX) (SARS-CoV-2 Omicron (B.1.1.529)) (UniProt P0DTC2)
[2] = molecular target: SARS-CoV-2 Omicron (B.1.1.529) spike protein RBD, His-tagged (SARS-CoV-2 Omicron (B.1.1.529)) (UniProt P0DTC2); assay: SPR

| Substance | IC50 [1] [nM] | Kd [2] [nM] |
| --- | --- | --- |
| REGEN-COV mAb cocktail (casirivimab and imdevimab at 1:1 molar ratio) | 13 |  |
| casirivimab (REGN10933) (antibody) |  | 1200 |
